In paper PMC10470925 (PLOS ONE, 2023):

Target: the molecule itself
Experiment: deoxycholate-induced oligomerization, PAGE and western blot

B1: Staphylococcus aureus alpha-hemolysin (Hla) (natural protein)
chain: ADSDINIKTGTTDIGSNTTVKTGDLVTYDKENGMHKKVFYSFIDDKNHNKKLLVIRTKGTIAGQYRVYSEEGANKSGLAWPSAFKVQLQLPDNEVAQISDYYPRNSIDTKEYMSTLTYGFNGNVTGDDTGKIGGLIGANVSIGHTLKYVQPDFKTILESPTDKKVGWKVIFNNMVNQNWGPYDRDSWNPVYGNQLFMKTRNGSMKAADNFLDPNKASSLLSSGFSPDFATVITMDRKASKQQTNIDVIYERVRDDYQLHWTSTNWKGTNTKDKWTDRSSERYKIDWEKEEMTN
  stoichiometry N: 7
